Data as given in patent publication US20220372147A1 (UNIVERSIT T STUTTGART, published 2022).
Where two headings read alike, the source gives them in different places.

T1: FcεRI Fc fusion protein comprising the extracellular region of FcεRI (human, UniProt P12319 26-205)
T1 construct: extracellular domain; also called FcεRT; FccRT; not shown: Fc part
T1 sequence (looked up): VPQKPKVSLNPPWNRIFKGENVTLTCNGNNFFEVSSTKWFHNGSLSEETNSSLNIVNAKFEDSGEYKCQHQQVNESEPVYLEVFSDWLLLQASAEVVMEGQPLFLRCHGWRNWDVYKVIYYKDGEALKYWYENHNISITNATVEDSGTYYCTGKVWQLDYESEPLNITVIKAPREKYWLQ

B1: bivalent and bispecific Fab-eFab molecule targeting HER3 and EGFR (bispecific antibody)
light 1: QAGLTQPPAVSVAPGQTASITCGRDNIGSRSVHWYQQKPGQAPVLVVYDDSDRPAGIPERFSGSNYENTATLTISRVEAGDEADYYCQVWGITSDHVVFGGGTKLTVLGTDFTPPTVKILQSSSDGGGHFPPTIQLLCLVSGYTPGTIQITWLEDGQVMDVDLSTASTTQEGELASTQSELTLSQKHWLSDRTYTCQVTYQGHTFEDSTKKCADSN
light 2: DIQLTQSPSFLSASVGDRVTITCRASQSIGTNIHWYQQKPGKAPKLLIKYASESISGVPSRFSGSGSGTEFTLTISSLQPEDFATYYCQQNNNWPTTFGAGTKLEIKRTVAAPSVFIFPPSDEQLKSGTASVVCLLNNFYPREAKVQWKVDNALQSGNSQESVTEQDSKDSTYSLSSTLTLSKADYEKHKVYACEVTHQGLSSPVTKSFNRGEC
heavy: EVQLVESGGGLVQPGGSLRLSCAASGFSLTNYGVHWVRQAPGKGLEWLGVIWSGGNTDYNTPFTSRFTISRDNSKNTLYLQMNSLRAEDTAVYYCARALTYYDYEFAYWGQGTTVTVSSASTKGPSVFPLAPSSKSTSGGTAALGCLVKDYFPEPVTVSWNSGALTSGVHTFPAVLQSSGLYSLSSVVTVPSSSLGTQTYICNVNHKPSNTKVDKKVEPKSCGGSGGGGSGGQVQLQQSGPGLVKPSQTLSLTCAISGDSVSSNRAAWNWIRQSPSRGLEWLGRTYYRSKWYNDYAQSLKSRITINPDTPKNQFSLQLNSVTPEDTAVYYCARDGQLGLDALDIWGQGTMVTVSSDFTPPTVKILQSSCDGGGHFPPTIQLLCLVSGYTPGTINITWLEDGQVMDVDLSTASTTQEGELASTQSELTLSQKHWLSDRTYTCQVTYQGHTFEDSTKKSADSNAAAHHHHHH
notes: No Fc region; one site for EGFR and one for HER3; C-terminal His-tag on the heavy chain; also called Fab-eFab EGFRxHER3
B2: bispecific and bivalent anti-CD3 x anti-HER3 eIgG (bispecific antibody)
light 1: QAGLTQPPAVSVAPGQTASITCGRDNIGSRSVHWYQQKPGQAPVLVVYDDSDRPAGIPERFSGSNYENTATLTISRVEAGDEADYYCQVWGITSDHVVFGGGTKLTVLGQPKAAPSVTLFPPSSEELQANKATLVCLISDFYPGAVTVAWKADSSPVKAGVETTTPSKQSNNKYAASSYLSLTPEQWKSHRSYSCQVTHEGSTVEKTVAPTECS
heavy 1: not shown
heavy 2: not shown
light 2: not shown
notes: One site for HER3 (3-43), one for CD3 (huU3, humanized UCHT1); also called eIg1; eIgl

What was measured:
[1] = molecular target: T2, His-tagged HER3 protein, extracellular domain (ECD) of HER3 (aa 21-643) (UniProt P21860 21-643); assay: ELISA, immobilized HER3-His, anti-human Fab-HRP detection
T2 construct: range 21-643; also called HER3-His; not shown: His-tag

[2] = molecular target: EGFR (immobilized control antigen of Example 11) (UniProt P00533 25-645, limits assumed); assay: ELISA at 50 nM, immobilized EGFR, anti-human Fab detection
[3] = molecular target: T1, FcεRI Fc fusion protein comprising the …; assay: ELISA, immobilized FcεRI-Fc, anti-human Fab detection
[4] = molecular target: T2, His-tagged HER3 protein, extracellular …; assay: bifunctional sandwich ELISA: immobilized HER3-His, titrated Fab-eFab, then EGFR-moFc as second antigen detected with anti-mouse Fc-HRP
[5] = molecular target: T3, EGFR-moFc (UniProt P00533 25-645); assay: bifunctional sandwich ELISA: immobilized HER3-His, EGFR-moFc detected with anti-mouse Fc-HRP
T3 construct: also called EGFR-moFc protein (second soluble antigen); not shown: murine Fc part

[6] = molecular target: T4, HER3 on HER3-expressing cancer cells (LIM1215, BT474) (UniProt P21860 20-1342, limits assumed); assay: flow cytometry on HER3-expressing LIM1215 and BT474 cells
T4 construct: whole, on cells; also called HER3-expressing LIM1215 cells; HER3-expressing BT474 cells

[7] = molecular target: T4, HER3 on HER3-expressing cancer cells …; assay: cell-based or functional assay
[8] = molecular target: T4, HER3 on HER3-expressing cancer cells …; assay: flow cytometry on HER3-expressing LIM1215 cells, PE anti-human Fc
[9] = molecular target: T5, CD3 on CD3-expressing Jurkat cells (human, UniProt P07766 23-207); assay: flow cytometry on CD3-expressing Jurkat cells, PE anti-human Fc
T5 construct: whole, on cells
T5 sequence (P07766 23-207): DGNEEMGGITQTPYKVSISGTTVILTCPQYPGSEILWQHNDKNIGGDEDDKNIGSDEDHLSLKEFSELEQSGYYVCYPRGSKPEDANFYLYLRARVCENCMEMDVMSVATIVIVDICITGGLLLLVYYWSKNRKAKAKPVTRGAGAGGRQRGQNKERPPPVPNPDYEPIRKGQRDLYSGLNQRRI

[10] = molecular target: T5, CD3 on CD3-expressing Jurkat cells; assay: as above; remark: listed apart in the source
[11] = molecular target: T4, HER3 on HER3-expressing cancer cells …; assay: flow cytometry on HER3-expressing LIM1215 cells, PE anti-human Fc; remark: listed apart in the source
[12] = molecular target: T2, His-tagged HER3 protein, extracellular …; assay: ELISA, immobilized HER3-His, anti-human Fc-HRP detection
[13] = molecular target: T4, HER3 on HER3-expressing cancer cells …; assay: flow cytometry on HER3-expressing BT474 cells, PE anti-human Fc

Binder | EC50 [1] | binding result [2] | binding result [3] | EC50 [4] | binding result [5] | factor weaker binding than the bispecific, trivalent eIg-Fab molecules [6] | EC50 value in cell killing (PBMC-mediated cytotoxicity on BT-474 cells, crystal violet) [7] | EC50 value in cell killing (PBMC-mediated cytotoxicity on LIM1215 cells, crystal violet) [7] | EC50 [8] | EC50 [9] | EC50 [10] | EC50 [11] | EC50 [12] | EC50 [13]
B1 | 3.9 nM | binds | no binding (tested: 50 nM) | 1.4 nM | binds | – | – | – | – | – | – | – | – | –
B2 | – | – | no binding (tested: 50 nM) | – | – | ≤ 50 fold | 3.8 nM | 5.8 nM | 4 nM | 5.1 nM | 11.9 nM | 0.4 nM | 2.1 nM | 4.8 nM
